Results on one substance are retold here after US20040161809.

In this data set the target is Staphylococcus aureus thioredoxin (Trx) (UniProt P0A0K6).
Staphylococcus aureus thioredoxin (Trx), sequence (P0A0K6 whole entry): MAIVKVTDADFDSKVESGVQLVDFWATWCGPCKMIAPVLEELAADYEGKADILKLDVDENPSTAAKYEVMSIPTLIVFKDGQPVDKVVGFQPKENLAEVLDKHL

On to “Staphylococcus aureus thioredoxin reductase (TrxB)”, for which the A412 (DTNB titration of free SH groups formed in insulin), complete reaction: NADPH + Trx + TrxB + insulin came out at 0.816 A412; the A412 (DTNB titration of free SH groups formed in insulin), control with NADPH omitted: Trx + TrxB + insulin stood at 0.15 A412; the A412 (DTNB titration of free SH groups formed in insulin), control with Trx omitted: NADPH + TrxB + insulin worked out at 0.493 A412.
